B1: Hsp70 10mer peptide Ac-GSGPTIEEVD-OH [modified: N-terminal acetyl; N-terminal acetyl] [not stated] / protein phosphatase 5 (PP5), human, full-length [human] (parent complex)
chain 1: GSGPTIEEVD
chain 2: MAMAEGERTECAEPPRDEPPADGALKRAEELKTQANDYFKAKDYENAIKFYSQAIELNPSNAIYYGNRSLAYLRTECYGYALGDATRAIELDKKYIKGYYRRAASNMALGKFRAALRDYETVVKVKPHDKDAKMKYQECNKIVKQKAFERAIAGDEHKRSVVDSLDIESMTIEDEYSGPKLEDGKVTISFMKELMQWYKDQKKLHRKCAYQILVQVKEVLSKLSTLVETTLKETEKITVCGDTHGQFYDLLNIFELNGLPSETNPYIFNGDFVDRGSFSVEVILTLFGFKLLYPDHFHLLRGNHETDNMNQIYGFEGEVKAKYTAQMYELFSEVFEWLPLAQCINGKVLIMHGGLFSEDGVTLDDIRKIERNRQPPDSGPMCDLLWSDPQPQNGRSISKRGVSCQFGPDVTKAFLEENNLDYIIRSHEVKAEGYEVAHGGRCVTVFSAPNYCDQMGNKASYIHLQGSDLRPQFHQFTAVPHPNVKPMAYANTLLQLGMM

Variants of: B1
Test: competition fluorescence polarisation; read at the highest peptide concentration, 100 µM; read off a plot

Row | Variant | response [% tracer bound]
1 | chain 1 I6A | ~12
2 | chain 1 D10A | ~110

Results, then the variant that gave them:

Row | response [% tracer bound] | Variant
3 | ~36 | chain 1 E7A
4 | ~74 | chain 1 E8A
5 | ~56 | chain 1 V9A

From publication PMC11259706 (The Journal of Biological Chemistry, 2024)
